Test [1] addresses histidine-tagged human thioredoxin (human) (UniProt P10599). The experiment in a line: pull-down.
The target of another test is LexA-Trx1 fusion protein (UniProt P22217). The experiment in a line: yeast one-hybrid interaction assay.
UniProt P22217, sequence (P22217 2-103): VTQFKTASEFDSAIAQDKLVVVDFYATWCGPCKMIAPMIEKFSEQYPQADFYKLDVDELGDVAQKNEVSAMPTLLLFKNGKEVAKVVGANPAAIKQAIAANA

UniProt P10599, sequence (P10599 whole entry, the tested form may be a part): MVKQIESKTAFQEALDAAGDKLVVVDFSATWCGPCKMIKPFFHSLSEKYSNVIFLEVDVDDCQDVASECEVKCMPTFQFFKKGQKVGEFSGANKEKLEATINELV

As to “purified baculovirus-expressed human p53 (from UniProt P04637 1-393) (natural protein)”, the Kd (as a rule, the free concentration of one partner at which half of the binding sites on the other are occupied at equilibrium, for simple one-to-one binding) in test [1] was 940 nM. “human p53 expressed in yeast from pRS415-p53 (from UniProt P04637 1-393) (natural protein)” gave a β-gal activity (nmol ONP / min 10^7 cells) with LexA-Trx1 fusion protein of 6.56.

The record behind these values is PMC2785850.
